Reference: publication PMC9418005

Biological target: Omicron BA.1.1 spike trimer (includes the R346K mutation) (SARS-CoV-2) (UniProt P0DTC2)
Experiment: Luminex spike-ACE2 surrogate neutralization assay

## P5C3 LS monoclonal antibody
  percent inhibition of ACE2 binding at 20 µg ml^−1: 100%
